{
  "source": "patent US20250066745A1",
  "about": "“MUTANTS AND USE THEREOF” (BGI SHENZHEN, priority 2021, published 2025)",
  "molecules": {"B1": {"name": "E102K S103T A104G E110G V138D I172: Gaussia luciferase mutant (protein)", "chain": "MGVKVLFALICIAVAEAKPTENNEDFNIVAVASNFATTDLDADRGKLPGKKLPLEVLKEMEANARKAGCTRGCLICLSHIKCTPKMKKFIPGRCHTYEGDKKTGQGGIGGAIVDIPEIPGFKDLEPMEQFIAQVDLCDDCTTGCLKGLANVQCSDLLKKWLPQRCATFASKIQGQVDKIKGAGGD"}, "B2": {"name": "S103I A104G E110G L124M V138D: Gaussia luciferase mutant (protein)", "chain": "B1 chain with K102E, T103I, L124M", "modifications": "SIGNAL (1)..(17)", "notes": "Gaussia luciferase mutant"}, "B3": {"name": "Q152K Q163S T167G S170V G174K Q175E K180: Gaussia luciferase mutant (protein)", "chain": "MGVKVLFALICIAVAEAKPTENNEDFNIVAVASNFATTDLDADRGKLPGKKLPLEVLKEMEANARKAGCTRGCLICLSHIKCTPKMKKFIPGRCHTYEGDKESAQGGIGEAIVDIPEIPGFKDLEPMEQFIAQVDLCVDCTTGCLKGLANVKCSDLLKKWLPSRCAGFAVKIQKEVDKIKGAGGD"}, "B4": {"name": "Q152K Q163S T167S S170N G174N K178S A182Y G183A: Gaussia luciferase mutant (protein)", "chain": "B3 chain with G167S, V170N, K174N, E175Q, K178S, A182Y, G183A", "modifications": "SIGNAL (1)..(17)", "notes": "Gaussia luciferase mutant"}, "B5": {"name": "Q152R T167G G174S Q175E K178N A182Y G183A: Gaussia luciferase mutant (protein)", "chain": "B3 chain with K152R, S163Q, V170S, K174S, K178N, A182Y, G183A", "modifications": "SIGNAL (1)..(17)", "notes": "Gaussia luciferase mutant"}, "B6": {"name": "Q152K Q163T S170N G174N K178S A182Y G183A: Gaussia luciferase mutant (protein)", "chain": "B3 chain with S163T, G167T, V170N, K174N, E175Q, K178S, A182Y, G183A", "modifications": "SIGNAL (1)..(17)", "notes": "Gaussia luciferase mutant"}, "B7": {"name": "Q163T T167S S170V G174N K178N A182Y G183A: Gaussia luciferase mutant (protein)", "chain": "B3 chain with K152Q, S163T, G167S, K174N, E175Q, K178N, A182Y, G183A", "modifications": "SIGNAL (1)..(17)", "notes": "Gaussia luciferase mutant"}, "B8": {"name": "Q152R Q163S T167G S170T G174K K178S A182M G183A: Gaussia luciferase mutant (protein)", "chain": "B3 chain with K152R, V170T, E175Q, K178S, A182M, G183A", "modifications": "SIGNAL (1)..(17)", "notes": "Gaussia luciferase mutant"}, "B9": {"name": "Q152R Q163S T167S S170D G174K Q175E K178N A182M: Gaussia luciferase mutant (protein)", "chain": "B3 chain with K152R, G167S, V170D, K178N, A182M", "modifications": "SIGNAL (1)..(17)", "notes": "Gaussia luciferase mutant"}, "B10": {"name": "F26C N27D A30D A32V S33R A36T: Gaussia luciferase mutant (protein)", "chain": "MGVKVLFALICIAVAEAKPTENNEDCDIVDVVRNFTTTDLDADRGKLPGKKLPLEVLKEMEANARKAGCTRGCLICLSHIKCTPKMKKFIPGRCHTYEGDKESAQGGIGEAIVDIPEIPGFKDLEPMEQFIAQVDLCVDCTTGCLKGLANVQCSDLLKKWLPQRCATFASKIQGQVDKIKGAGGD", "modifications": "SIGNAL (1)..(17)", "notes": "Gaussia luciferase mutant"}, "B11": {"name": "F26C N27D A30V V31L A32G S33I A36V T37M L40G: Gaussia luciferase mutant (protein)", "chain": "B10 chain with D30V, V31L, V32G, R33I, T36V, T37M, L40G", "modifications": "SIGNAL (1)..(17)", "notes": "Gaussia luciferase mutant"}, "B12": {"name": "F26G N27Y A30G V31L A32G S33L A36Y T37V L40E: Gaussia luciferase mutant (protein)", "chain": "B10 chain with C26G, D27Y, D30G, V31L, V32G, R33L, T36Y, T37V, L40E", "modifications": "SIGNAL (1)..(17)", "notes": "Gaussia luciferase mutant"}, "B13": {"name": "F26C N27D V29L A32V A36I T37A L40I: Gaussia luciferase mutant (protein)", "chain": "B10 chain with V29L, D30A, R33S, T36I, T37A, L40I", "modifications": "SIGNAL (1)..(17)", "notes": "Gaussia luciferase mutant"}, "B14": {"name": "F26G N27D V29L A30V V31I A32G S33D A36W T37S: Gaussia luciferase mutant (protein)", "chain": "B10 chain with C26G, V29L, D30V, V31I, V32G, R33D, T36W, T37S", "modifications": "SIGNAL (1)..(17)", "notes": "Gaussia luciferase mutant"}, "B15": {"name": "F26I N27D V29A A30D V31I S33K A36N T37K L40P: Gaussia luciferase mutant (protein)", "chain": "B10 chain with C26I, V29A, V31I, V32A, R33K, T36N, T37K, L40P", "modifications": "SIGNAL (1)..(17)", "notes": "Gaussia luciferase mutant"}, "B16": {"name": "F26G N27Y V29C A30V V31L S33G A36R T37A L40A: Gaussia luciferase mutant (protein)", "chain": "B10 chain with C26G, D27Y, V29C, D30V, V31L, V32A, R33G, T36R, T37A, L40A", "modifications": "SIGNAL (1)..(17)", "notes": "Gaussia luciferase mutant"}, "B17": {"name": "F26I V29A A30D A32V S33K T37E L40A: Gaussia luciferase mutant (protein)", "chain": "B10 chain with C26I, D27N, V29A, R33K, T36A, T37E, L40A", "modifications": "SIGNAL (1)..(17)", "notes": "Gaussia luciferase mutant"}},
  "note": "Positions count from the first letter of the chain named. In names and notes the source's numbering stands.",
  "data": [
    {"assay": "Luminescence activity assay of purified Gaussia luciferase mutants on fluoro-coelenterazine", "format": "biochemical", "set-up": "key to Activity of mutant relative to wild-type Gaussia luciferase without the signal peptide: ratio of mutant luminescence intensity to wild-type Gaussia luciferase", "conditions": "Substrate f-CTZ (Table 16)", "method_in_brief": "(§1)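 Readout: luminescence intensity, as ratio to signal-peptide-free wild-type enzyme. Enzyme 1 μg/mL, substrate 100 μM stock, 10 μL + 90 μL; buffer 50 mM Tris-HCl pH 8.0, 100 mM NaCl, 0.1% Tween-20.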", "values": [
      {"molecule": "B1", "Activity of mutant relative to wild-type Gaussia luciferase without the signal peptide": 2.719},
      {"molecule": "B2", "Activity of mutant relative to wild-type Gaussia luciferase without the signal peptide": 1.701},
      {"molecule": "B3", "Activity of mutant relative to wild-type Gaussia luciferase without the signal peptide": 0.512},
      {"molecule": "B4", "Activity of mutant relative to wild-type Gaussia luciferase without the signal peptide": 1.175},
      {"molecule": "B5", "Activity of mutant relative to wild-type Gaussia luciferase without the signal peptide": 0.404},
      {"molecule": "B6", "Activity of mutant relative to wild-type Gaussia luciferase without the signal peptide": 0.299},
      {"molecule": "B7", "Activity of mutant relative to wild-type Gaussia luciferase without the signal peptide": 0.135},
      {"molecule": "B8", "Activity of mutant relative to wild-type Gaussia luciferase without the signal peptide": 1.864},
      {"molecule": "B9", "Activity of mutant relative to wild-type Gaussia luciferase without the signal peptide": 1.020},
      {"molecule": "B10", "Activity of mutant relative to wild-type Gaussia luciferase without the signal peptide": 0.130},
      {"molecule": "B11", "Activity of mutant relative to wild-type Gaussia luciferase without the signal peptide": 0.065},
      {"molecule": "B12", "Activity of mutant relative to wild-type Gaussia luciferase without the signal peptide": 0.025},
      {"molecule": "B13", "Activity of mutant relative to wild-type Gaussia luciferase without the signal peptide": 0.141},
      {"molecule": "B14", "Activity of mutant relative to wild-type Gaussia luciferase without the signal peptide": 0.040},
      {"molecule": "B15", "Activity of mutant relative to wild-type Gaussia luciferase without the signal peptide": 0.080},
      {"molecule": "B16", "Activity of mutant relative to wild-type Gaussia luciferase without the signal peptide": 0.104},
      {"molecule": "B17", "Activity of mutant relative to wild-type Gaussia luciferase without the signal peptide": 0.583}
    ]},
    {"assay": "Luminescence activity assay of purified Gaussia luciferase mutants on coelenterazine derivative ZS2", "format": "biochemical", "set-up": "key to Activity of mutant relative to wild-type Gaussia luciferase without the signal peptide: ratio of mutant luminescence intensity to wild-type Gaussia luciferase", "conditions": "Substrate ZS2 (Table 16)", "method_in_brief": "as §1", "values": [
      {"molecule": "B1", "Activity of mutant relative to wild-type Gaussia luciferase without the signal peptide": 0.550},
      {"molecule": "B2", "Activity of mutant relative to wild-type Gaussia luciferase without the signal peptide": 1.337},
      {"molecule": "B3", "Activity of mutant relative to wild-type Gaussia luciferase without the signal peptide": 0.136},
      {"molecule": "B4", "Activity of mutant relative to wild-type Gaussia luciferase without the signal peptide": 0.819},
      {"molecule": "B5", "Activity of mutant relative to wild-type Gaussia luciferase without the signal peptide": 0.481},
      {"molecule": "B6", "Activity of mutant relative to wild-type Gaussia luciferase without the signal peptide": 0.026},
      {"molecule": "B7", "Activity of mutant relative to wild-type Gaussia luciferase without the signal peptide": 0.138},
      {"molecule": "B8", "Activity of mutant relative to wild-type Gaussia luciferase without the signal peptide": 2.367},
      {"molecule": "B9", "Activity of mutant relative to wild-type Gaussia luciferase without the signal peptide": 3.139},
      {"molecule": "B10", "Activity of mutant relative to wild-type Gaussia luciferase without the signal peptide": 0.166},
      {"molecule": "B11", "Activity of mutant relative to wild-type Gaussia luciferase without the signal peptide": 0.086},
      {"molecule": "B12", "Activity of mutant relative to wild-type Gaussia luciferase without the signal peptide": 0.027},
      {"molecule": "B13", "Activity of mutant relative to wild-type Gaussia luciferase without the signal peptide": 0.166},
      {"molecule": "B14", "Activity of mutant relative to wild-type Gaussia luciferase without the signal peptide": 0.027},
      {"molecule": "B15", "Activity of mutant relative to wild-type Gaussia luciferase without the signal peptide": 0.026},
      {"molecule": "B16", "Activity of mutant relative to wild-type Gaussia luciferase without the signal peptide": 0.080},
      {"molecule": "B17", "Activity of mutant relative to wild-type Gaussia luciferase without the signal peptide": 1.231}
    ]},
    {"assay": "Luminescence activity assay of purified Gaussia luciferase mutants on coelenterazine", "format": "biochemical", "set-up": "key to Activity of mutant relative to wild-type Gaussia luciferase without the signal peptide: ratio of mutant luminescence intensity to wild-type Gaussia luciferase", "conditions": "Substrate CTZ (Table 16)", "method_in_brief": "as §1", "values": [
      {"molecule": "B1", "Activity of mutant relative to wild-type Gaussia luciferase without the signal peptide": 0.622},
      {"molecule": "B2", "Activity of mutant relative to wild-type Gaussia luciferase without the signal peptide": 1.165},
      {"molecule": "B3", "Activity of mutant relative to wild-type Gaussia luciferase without the signal peptide": 0.011},
      {"molecule": "B4", "Activity of mutant relative to wild-type Gaussia luciferase without the signal peptide": 0.906},
      {"molecule": "B5", "Activity of mutant relative to wild-type Gaussia luciferase without the signal peptide": 0.703},
      {"molecule": "B6", "Activity of mutant relative to wild-type Gaussia luciferase without the signal peptide": 0.194},
      {"molecule": "B7", "Activity of mutant relative to wild-type Gaussia luciferase without the signal peptide": 0.170},
      {"molecule": "B8", "Activity of mutant relative to wild-type Gaussia luciferase without the signal peptide": 1.171},
      {"molecule": "B9", "Activity of mutant relative to wild-type Gaussia luciferase without the signal peptide": 4.609},
      {"molecule": "B10", "Activity of mutant relative to wild-type Gaussia luciferase without the signal peptide": 0.126},
      {"molecule": "B11", "Activity of mutant relative to wild-type Gaussia luciferase without the signal peptide": 0.054},
      {"molecule": "B12", "Activity of mutant relative to wild-type Gaussia luciferase without the signal peptide": 0.031},
      {"molecule": "B13", "Activity of mutant relative to wild-type Gaussia luciferase without the signal peptide": 0.203},
      {"molecule": "B14", "Activity of mutant relative to wild-type Gaussia luciferase without the signal peptide": 0.038},
      {"molecule": "B15", "Activity of mutant relative to wild-type Gaussia luciferase without the signal peptide": 0.016},
      {"molecule": "B16", "Activity of mutant relative to wild-type Gaussia luciferase without the signal peptide": 0.088},
      {"molecule": "B17", "Activity of mutant relative to wild-type Gaussia luciferase without the signal peptide": 1.470}
    ]}
  ]
}
